# Article PMC6920325
# Target: LDL-R (human, UniProt P01130 22-788)
# Test: ELONA
# Chain of LDL-R (P01130 22-788): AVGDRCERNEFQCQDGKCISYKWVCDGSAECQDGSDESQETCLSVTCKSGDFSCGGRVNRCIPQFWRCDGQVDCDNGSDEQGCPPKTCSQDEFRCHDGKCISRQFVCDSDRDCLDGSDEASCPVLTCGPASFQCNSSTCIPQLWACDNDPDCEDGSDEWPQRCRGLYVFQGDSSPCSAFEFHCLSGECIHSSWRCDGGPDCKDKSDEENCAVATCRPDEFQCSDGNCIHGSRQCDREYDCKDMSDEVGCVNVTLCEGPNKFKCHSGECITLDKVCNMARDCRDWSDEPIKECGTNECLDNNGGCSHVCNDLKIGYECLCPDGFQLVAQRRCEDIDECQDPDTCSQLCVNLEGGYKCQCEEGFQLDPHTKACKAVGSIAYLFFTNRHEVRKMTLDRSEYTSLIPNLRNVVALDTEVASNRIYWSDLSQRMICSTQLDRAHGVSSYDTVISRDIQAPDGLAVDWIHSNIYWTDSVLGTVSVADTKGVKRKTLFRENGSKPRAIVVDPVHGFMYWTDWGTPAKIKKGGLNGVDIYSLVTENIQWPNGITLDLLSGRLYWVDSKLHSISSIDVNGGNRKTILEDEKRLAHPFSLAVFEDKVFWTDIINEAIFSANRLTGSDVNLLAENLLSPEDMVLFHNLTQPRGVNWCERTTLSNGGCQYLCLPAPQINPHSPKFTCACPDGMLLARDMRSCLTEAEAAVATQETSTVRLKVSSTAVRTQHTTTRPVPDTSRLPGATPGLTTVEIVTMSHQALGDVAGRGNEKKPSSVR
Binder,Kd,binding result
RNV-L7 (ssDNA) DNA: GGACAGGACCACACCCAGCGCGGTCGGCGGGTGGGCGGGGGGAGAACGAGGTAGGGGTCAGGCTCCTGTGTGTCGCTTTGT,19.6 nM,–
CGGTCGGCGGGTGGGCGGGGGGAGAACGAGGTAGGGGTCA (ssDNA) [RNV-L7 truncated],–,no binding
